This is an account of results in patent US20260034234A1 (AGENSYS, published 2026).

Substitutions are numbered along the chain they refer to.

Experiment [1] concerns the target T1, 191P4D12 (human, wild type, on cells) (human, UniProt Q96NY8 32-510).
T1 construct: 510 amino acid ORF expressed on PC3, RAT/Rat1(E) cells and present in cancer cell lines and tumor specimens; also called human 191P4D12; wild-type 191P4D12
T1 sequence: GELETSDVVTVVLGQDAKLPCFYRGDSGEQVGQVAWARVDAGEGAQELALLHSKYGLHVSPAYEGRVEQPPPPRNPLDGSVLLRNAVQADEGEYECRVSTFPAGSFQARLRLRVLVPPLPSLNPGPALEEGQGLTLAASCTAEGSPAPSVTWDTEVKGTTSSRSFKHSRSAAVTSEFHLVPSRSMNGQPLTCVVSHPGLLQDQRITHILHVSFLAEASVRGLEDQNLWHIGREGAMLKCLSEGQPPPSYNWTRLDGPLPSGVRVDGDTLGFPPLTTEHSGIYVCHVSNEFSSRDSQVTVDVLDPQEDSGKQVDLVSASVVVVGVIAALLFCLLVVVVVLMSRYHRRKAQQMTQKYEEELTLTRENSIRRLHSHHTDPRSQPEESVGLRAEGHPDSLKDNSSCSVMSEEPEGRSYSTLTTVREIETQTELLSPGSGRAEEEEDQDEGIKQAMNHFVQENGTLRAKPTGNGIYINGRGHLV
As to the kind of experiment: FACS on PC3-191P4D12 cells. The source says:
(§1) The 191P4D12 protein of human, cynomolgus, rat and murine origin was overexpressed recombinantly in a PC3 cell line to determine cross-reactivity of Ha22-2(2,4)6.1 to these orthologs. It was shown that Ha22-2(2,4)6.1 strongly cross-reacts with cynomolgus and rat orthologs of 191P4D12 (FIG. 23).

Experiment [2] has as its target T2, Murine ortholog of 191P4D12, wild type (on PC3 cells) (mouse, UniProt Q8R007 31-508).
T2 construct: whole, on cells; also called mouse 191P4D12
T2 sequence (looked up): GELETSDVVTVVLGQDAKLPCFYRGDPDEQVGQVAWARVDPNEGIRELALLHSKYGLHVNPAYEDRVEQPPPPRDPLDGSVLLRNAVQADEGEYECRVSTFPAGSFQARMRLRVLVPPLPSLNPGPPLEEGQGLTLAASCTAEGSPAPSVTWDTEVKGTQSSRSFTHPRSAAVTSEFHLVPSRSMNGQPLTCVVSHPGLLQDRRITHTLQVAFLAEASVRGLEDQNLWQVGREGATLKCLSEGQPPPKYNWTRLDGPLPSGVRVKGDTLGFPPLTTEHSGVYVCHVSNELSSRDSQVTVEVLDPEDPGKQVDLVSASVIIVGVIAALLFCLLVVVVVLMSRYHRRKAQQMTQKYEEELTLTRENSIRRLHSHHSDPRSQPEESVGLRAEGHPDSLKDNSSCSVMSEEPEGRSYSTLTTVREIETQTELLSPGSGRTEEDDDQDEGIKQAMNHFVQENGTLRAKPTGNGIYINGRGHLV
Briefly: FACS on PC3 cells expressing the murine ortholog.
Excerpt: as §1

The target in experiment [3] is T3, purified recombinant 191P4D12 (ECD amino acids 1-348) (human, UniProt Q96NY8 32-348).
T3 construct: Range as printed
T3 sequence: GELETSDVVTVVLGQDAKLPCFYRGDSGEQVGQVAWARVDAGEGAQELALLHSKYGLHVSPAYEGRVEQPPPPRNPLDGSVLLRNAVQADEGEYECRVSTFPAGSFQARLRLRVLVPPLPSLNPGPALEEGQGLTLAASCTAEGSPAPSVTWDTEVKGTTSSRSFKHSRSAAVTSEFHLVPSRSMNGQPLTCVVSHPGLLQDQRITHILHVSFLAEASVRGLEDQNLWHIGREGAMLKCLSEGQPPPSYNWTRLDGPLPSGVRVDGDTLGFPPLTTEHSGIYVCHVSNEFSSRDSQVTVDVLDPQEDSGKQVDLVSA
Briefly: SPR (Biacore), antibody captured by anti-human Fc, 191P4D12 ECD as analyte. The protocol: The affinity of Ha22-2(2,4)6.1 MAb and Ha22-2(2,4)6.1vcMMAE to purified recombinant 191P4D12 (ECD amino acids 1-348) was performed by Surface Plasmon Resonance (SPR) (BIAcore). Briefly, goat-anti-human Fcγ polyclonal Abs (Jackson Immuno Research Labs, Inc.) were covalently immobilized on the surface of a CM5 sensor chip (Biacore). Purified Ha22-2(2,4)6.1 MAb or Ha22-2(2,4)6.1vcMMAE were then captured on the surface of said chip. On average, approximately 300 RUs of test Ha22-2(2,4)6.1 MAb or Ha22-2(2,4)6.1vcMMAE was captured in every cycle. Subsequently, a series of five (5) to six (6) dilutions of recombinant 191P4D12 (ECD amino acids 1-348) ranging from 1 nM to 100 nM was injected over such surface to generate binding curves (sensograms) that were processed and globally fit to a 1:1 interaction model using BIAevaluation 3.2 and CLAMP software (Myszka and Morton, 1998) (FIG. 22). Table V summarizes association and dissociation rate constants as well as affinities of Ha22-2(2,4)6.1 MAb and Ha22-2(2,4)6.1 vcMMAE to recombinant 191P4D12 (ECD amino acids 1-348).

Experiment [4] addresses Murine ortholog of 191P4D12, N90S, I75A double mutant (on PC3 cells) (mouse) (UniProt Q8R007). As to the kind of experiment: FACS titration of Ha22-2(2,4)6.1 on PC3 cells expressing mouse 191P4D12 I75A,N90S.
Experiment [5] addresses T4, Murine ortholog of 191P4D12, N90S mutant (on PC3 cells) (mouse, UniProt Q8R007 31-508).
T4 construct: whole, on cells; also called murine mutant ortholog
T4 sequence (looked up): T2 sequence (looked up) with N60S
As to the kind of experiment: FACS titration of Ha22-2(2,4)6.1 on PC3 cells expressing mouse 191P4D12 N90S.

B1: Ha22-2(2,4)6.1 MAb (antibody, human IgG1, kappa, V domains shown)
VH: EVQLVESGGGLVQPGGSLRLSCAASGFTFSSYNMNWVRQAPGKGLEWVSYISSSSSTIYYADSVKGRFTISRDNAKNSLSLQMNSLRDEDTAVYYCARAYYYGMDVWGQGTTVTVSS
VL: DIQMTQSPSSVSASVGDRVTITCRASQGISGWLAWYQQKPGKAPKFLIYAASTLQSGVPSRFSGSGSGTDFTLTISSLQPEDFATYYCQQANSFPPTFGGGTKVEIKR
notes: Fully human IgG1 kappa from XenoMouse; Used biotinylated in the Western blot; also called 191P4D12 MAb Ha22-2(2,4)6.1; Ha22-(2,4)6.1 MAb
Take B1: in experiment [1], a half-maximal response (EC50) required 0.28 nM. The molecule also displayed an EC50 in experiment [2] of 70.3 nM. Further, in experiment [3], the Kd amounted to 16 nM, the off-rate (koff) was found to be 0.0058 s⁻¹ and the kon is 380000 M⁻¹ s⁻¹. Further, in experiment [4], the EC50 (read off the curve) worked out at 0.5 nM. In addition, in experiment [5], the “EC50 (read off the curve)” value was roughly 0.4 nM.
